Laboratory results reported in PMC10397247.
Like-named read-outs stand apart in the source and are kept apart here.

Legend:
[1] = target: T1, 4H780-AA; assay: two-hybrid library CCmax; details: mean of both orientations;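 further: natural log of median RNA to DNA barcode read ratio; higher means stronger binding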
T1 chain: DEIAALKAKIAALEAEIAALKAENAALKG

[2] = target: T2, 4H717-AA; assay: two-hybrid library CCmax; details: mean of both orientations;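 further: natural log of median RNA to DNA barcode read ratio; higher means stronger binding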
T2 chain: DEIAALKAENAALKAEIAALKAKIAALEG

[3] = target: T3, 4H993-AA; assay: two-hybrid library CCmax; details: mean of both orientations;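 further: natural log of median RNA to DNA barcode read ratio; higher means stronger binding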
T3 chain: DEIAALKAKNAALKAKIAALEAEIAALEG

[4] = target: T4, 4H678-AA; assay: two-hybrid library CCmax; details: mean of both orientations;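 further: natural log of median RNA to DNA barcode read ratio; higher means stronger binding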
T4 chain: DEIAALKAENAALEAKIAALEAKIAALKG

[5] = target: T5, 4H566-AA; assay: two-hybrid library CCmax; details: mean of both orientations
T5 chain: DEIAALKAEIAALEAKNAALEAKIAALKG

[6] = target: T6, 4H881-AA; assay: two-hybrid library CCmax; details: mean of both orientations
T6 chain: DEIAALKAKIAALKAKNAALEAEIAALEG

[7] = target: T7, 4H454-AA; assay: two-hybrid library CCmax; details: mean of both orientations
T7 chain: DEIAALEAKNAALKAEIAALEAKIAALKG

[8] = target: T8, 4H429-AA; assay: two-hybrid library CCmax; details: mean of both orientations
T8 chain: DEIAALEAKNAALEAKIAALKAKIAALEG

[9] = target: T9, 4H794-AA; assay: two-hybrid library CCmax; details: mean of both orientations
T9 chain: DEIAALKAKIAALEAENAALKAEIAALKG

[10] = target: T10, 4H3921-AA; assay: two-hybrid library CCmax
T10 chain: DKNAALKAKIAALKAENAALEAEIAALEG

[11] = target: T11, 4H906-AA; assay: two-hybrid library CCmax; details: mean of both orientations
T11 chain: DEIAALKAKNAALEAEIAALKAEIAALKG

[12] = target: T12, 4H605-AA; assay: two-hybrid library CCmax; details: mean of both orientations
T12 chain: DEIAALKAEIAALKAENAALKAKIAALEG

[13] = target: T13, 4H675-AA; assay: two-hybrid library CCmax
T13 chain: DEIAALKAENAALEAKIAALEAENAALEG

[14] = target: T14, 4H971-AA; assay: two-hybrid library CCmax
T14 chain: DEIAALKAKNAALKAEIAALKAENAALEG

[15] = target: T15, 4H797-AA; assay: two-hybrid library CCmax; details: mean of both orientations
T15 chain: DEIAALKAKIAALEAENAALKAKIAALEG

[16] = target: T16, 4H850-AA; assay: two-hybrid library CCmax; details: mean of both orientations
T16 chain: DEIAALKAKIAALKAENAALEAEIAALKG

[17] = target: T17, 4H930-AA; assay: two-hybrid library CCmax; details: mean of both orientations
T17 chain: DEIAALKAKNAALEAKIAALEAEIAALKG

[18] = target: T18, 4H629-AA; assay: two-hybrid library CCmax
T18 chain: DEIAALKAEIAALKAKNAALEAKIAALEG

[19] = target: T19, 4H94-AA; assay: two-hybrid library CCmax; details: mean of both orientations
T19 chain: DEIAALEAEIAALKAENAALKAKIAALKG

[20] = target: T20, 4H710-AA; assay: two-hybrid library CCmax; details: mean of both orientations
T20 chain: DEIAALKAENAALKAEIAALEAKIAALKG

[21] = target: T21, 4H909-AA; assay: two-hybrid library CCmax; details: mean of both orientations
T21 chain: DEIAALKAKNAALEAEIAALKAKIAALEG

[22] = target: T22, 4H485-AA; assay: two-hybrid library CCmax
T22 chain: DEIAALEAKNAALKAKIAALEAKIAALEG

[23] = target: T23, 4H570-AA; assay: two-hybrid library CCmax; details: mean of both orientations
T23 chain: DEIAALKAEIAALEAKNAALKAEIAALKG

[24] = target: T24, 4H458-AA; assay: two-hybrid library CCmax
T24 chain: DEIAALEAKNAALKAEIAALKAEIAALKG

[25] = target: T25, 4H745-AA; assay: two-hybrid library CCmax
T25 chain: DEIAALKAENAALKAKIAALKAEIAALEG

[26] = target: T26, 4H891-AA; assay: two-hybrid library CCmax; details: mean of both orientations
T26 chain: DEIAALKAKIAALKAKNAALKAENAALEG

[27] = target: T27, 4H536-AA; assay: two-hybrid library CCmax; details: mean of both orientations
T27 chain: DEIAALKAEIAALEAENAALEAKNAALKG

[28] = target: T28, 4H3655-AA; assay: two-hybrid library CCmax
T28 chain: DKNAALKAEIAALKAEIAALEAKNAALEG

[29] = target: T29, 4H48-AA; assay: two-hybrid library CCmax; details: mean of both orientations
T29 chain: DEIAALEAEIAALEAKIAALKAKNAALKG

[30] = target: T30, 4H3844-AA; assay: two-hybrid library CCmax
T30 chain: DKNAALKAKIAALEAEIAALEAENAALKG

[31] = target: T31, 4H3753-AA; assay: two-hybrid library CCmax
T31 chain: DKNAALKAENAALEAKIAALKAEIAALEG

[32] = target: T32, 4H3865-AA; assay: two-hybrid library CCmax; details: mean of both orientations
T32 chain: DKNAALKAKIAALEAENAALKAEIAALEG

[33] = target: T33, 4H656-AA; assay: two-hybrid library CCmax
T33 chain: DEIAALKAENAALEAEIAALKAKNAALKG

[34] = target: T34, 4H906-bH; assay: two-hybrid library CCNG1
T34 chain: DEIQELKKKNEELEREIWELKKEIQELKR

[35] = target: T35, 4H982-AA; assay: two-hybrid library CCmax
T35 chain: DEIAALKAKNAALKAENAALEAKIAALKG

[36] = target: T36, 4H906-bA; assay: two-hybrid library CCNG1
T36 chain: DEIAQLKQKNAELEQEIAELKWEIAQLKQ

[37] = target: T37, 4H918-bN; assay: two-hybrid library CCNG1
T37 chain: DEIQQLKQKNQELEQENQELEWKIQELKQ

[38] = target: T38, 4H3427-AA; assay: two-hybrid library CCmax; details: mean of both orientations
T38 chain: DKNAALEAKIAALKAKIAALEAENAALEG

[39] = target: T39, 4H3606-AA; assay: two-hybrid library CCmax; details: mean of both orientations
T39 chain: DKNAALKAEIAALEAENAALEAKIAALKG

[40] = target: T40, 4H342-AA; assay: two-hybrid library CCmax
T40 chain: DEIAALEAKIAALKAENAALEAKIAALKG

[41] = target: T41, 4H3627-AA; assay: two-hybrid library CCmax; details: mean of both orientations
T41 chain: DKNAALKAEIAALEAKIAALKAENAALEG

DKNAALKAKIAALKAENAALEAEIAALEG [4H3921-AA]
interaction score [1]: -1.71
interaction score [2]: -1.37
interaction score [3]: 0.874
interaction score [4]: -1.4
interaction score [5]: 0.811
interaction score [6]: -0.834
interaction score [7]: 0.521
interaction score [8]: -0.196
interaction score [9]: -0.924
interaction score [10]: -1.67
interaction score [11]: -1.62
interaction score [12]: -0.532

DEIAALKAENAALEAKIAALEAENAALEG [4H675-AA]
interaction score [13]: -1.72
interaction score ([14]; mean of both orientations): 0.0439

DEIAALEAKNAALKAEIAALKAEIAALKG [4H458-AA]
interaction score [15]: -1.44
interaction score [16]: 1.08
interaction score [17]: -0.663
interaction score [18]: -1.64
interaction score [19]: -1.35
interaction score [20]: 1.06
interaction score [21]: -0.173
interaction score ([22]; mean of both orientations): -1.76
interaction score [23]: -0.947
interaction score [24]: 1.87
interaction score ([25]; mean of both orientations): 1.1
interaction score [26]: -1.67
interaction score [27]: -1.46

DEIAALEAKNAALKAKIAALEAKIAALEG [4H485-AA]
interaction score [15]: -0.968
interaction score [16]: 1.97
interaction score [17]: -0.103
interaction score ([18]; mean of both orientations): -1.15
interaction score [19]: -1.46
interaction score [20]: 1.71
interaction score [21]: -0.153
interaction score [22]: 1.06
interaction score [23]: -1.69
interaction score [25]: 1.2
interaction score [26]: -2.05
interaction score [27]: -1.29

DKNAALKAEIAALKAEIAALEAKNAALEG [4H3655-AA]
interaction score [1]: -1.83
interaction score [2]: -1.27
interaction score [3]: -1.32
interaction score [4]: -0.956
interaction score [5]: -1.03
interaction score [6]: -0.202
interaction score [7]: -0.827
interaction score [8]: -1.13
interaction score [9]: -1.61
interaction score [28]: 0.24
interaction score ([10]; mean of both orientations): -1.55
interaction score [29]: 0.736
interaction score [11]: -1.03
interaction score ([30]; mean of both orientations): -1.26
interaction score [12]: -1.25

DKNAALKAENAALEAKIAALKAEIAALEG [4H3753-AA]
interaction score [15]: -1.42
interaction score [16]: -2
interaction score [17]: -1.43
interaction score ([18]; mean of both orientations): -1.7
interaction score [19]: -1.45
interaction score [20]: 2.05
interaction score [21]: -0.932
interaction score [31]: -0.536
interaction score ([22]; mean of both orientations): 1.4
interaction score [32]: -1.43
interaction score [23]: -1
interaction score ([24]; mean of both orientations): 1.56
interaction score ([25]; mean of both orientations): -0.67
interaction score [26]: -1.97
interaction score [27]: -1.2

DKNAALKAKIAALEAEIAALEAENAALKG [4H3844-AA]
interaction score [1]: 0.995
interaction score [2]: -1.65
interaction score [3]: -1.76
interaction score [4]: 0.663
interaction score [5]: -1.77
interaction score [6]: -0.992
interaction score [7]: -0.212
interaction score [8]: -0.665
interaction score [9]: -1.33
interaction score ([10]; mean of both orientations): -1.65
interaction score [29]: 1.16
interaction score [11]: -1.43
interaction score [30]: 0.661
interaction score [33]: -1.07
interaction score [12]: -1.48

DEIQELKKKNEELEREIWELKKEIQELKR [4H906-bH]
interaction score [34]: 0.905

DEIAALKAKNAALKAENAALEAKIAALKG [4H982-AA]
interaction score [35]: 0.123

DEIAQLKQKNAELEQEIAELKWEIAQLKQ [4H906-bA]
interaction score [36]: 0.95
interaction score [37]: -0.333

DEIAALKAENAALEAEIAALKAKNAALKG [4H656-AA]
interaction score ([13]; mean of both orientations): 0.797
interaction score ([14]; mean of both orientations): 1.93
interaction score [33]: 0.334

DEIAALEAKIAALKAENAALEAKIAALKG [4H342-AA]
interaction score [1]: -1.58
interaction score [38]: -1.15
interaction score [39]: 1.55
interaction score [2]: -1.4
interaction score [3]: 1.17
interaction score [4]: 0.227
interaction score [5]: 2.31
interaction score [6]: 2.49
interaction score [7]: 2.21
interaction score [40]: 1.54
interaction score [8]: -0.49
interaction score [9]: 1.25
interaction score ([28]; mean of both orientations): -0.61
interaction score ([10]; mean of both orientations): 0.975
interaction score [29]: -0.491
interaction score [11]: -1.52
interaction score ([30]; mean of both orientations): 0.569
interaction score [41]: 0.447
interaction score [12]: 1.41

DEIAALKAKNAALKAEIAALKAENAALEG [4H971-AA]
interaction score [14]: -0.816
